Measured values reported in paper PMC8873214, “RIOX1-demethylated cGAS regulates ionizing radiation-elicited DNA repair” (Bone Research, 2022).

Target: T1, purified K491me-bearing Flag-cGAS (mouse, UniProt Q8C6L5 1-507, monomethyl-lysine at K491)
T1 construct: cyclic GMP-AMP synthase (cGAS), mouse (K491 is the mouse numbering); also called K491me-bearing cGAS; purified Flag-cGAS protein methylated by His-SET7; source: bacterially purified, then methylated in vitro with purified His-SET7
Experiment: pull-down; purified Flag-cGAS methylated in vitro by purified His-SET7, incubated with purified SGF29, then with biotin-PAR; streptavidin pulldown, immunoblot; binding of SGF29 read from the loss of PAR-bound cGAS
Settings: both partners purified

T1 sequence (Q8C6L5 whole entry): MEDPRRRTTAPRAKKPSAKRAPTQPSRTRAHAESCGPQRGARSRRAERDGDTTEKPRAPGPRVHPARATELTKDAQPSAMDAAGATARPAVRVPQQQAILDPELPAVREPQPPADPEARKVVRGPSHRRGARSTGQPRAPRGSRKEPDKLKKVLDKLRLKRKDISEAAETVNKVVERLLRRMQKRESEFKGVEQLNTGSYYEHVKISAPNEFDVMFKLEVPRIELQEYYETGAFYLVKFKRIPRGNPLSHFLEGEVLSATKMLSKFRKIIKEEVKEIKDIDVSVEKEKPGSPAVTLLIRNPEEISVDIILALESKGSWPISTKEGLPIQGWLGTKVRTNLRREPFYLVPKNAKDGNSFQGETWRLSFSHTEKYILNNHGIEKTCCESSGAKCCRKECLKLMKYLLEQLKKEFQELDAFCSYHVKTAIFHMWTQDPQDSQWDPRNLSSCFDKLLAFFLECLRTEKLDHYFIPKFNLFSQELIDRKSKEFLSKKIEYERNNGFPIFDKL

- binding result: binds
B1: purified His-SGF29 protein (natural protein, mouse, UniProt Q9DA08 1-293, looked up)
chain: MALVSADSRIAELLTELHQLIKQTQEERSRSEHNLVNIQKTHERMQTENKISPYYRTKLRGLYTTAKTDAEAECNILRKALDKIAEIKSLLEERRIAAKIAGLYNDSEPPRKTMRRGVLMTLLQQSAMTLPLWIGKPGDKPPPLCGAIPASGDYVAKPGDKVAARVKAVEGDEQWILAEVVSYSHATNKYEVDDIDEEGKERHTLSRRRIIPLPQWKANPETDPEALFQKEQLVLALYPQTTCFYRALIHTPPQRPQDDYSVLFEDTSYADGYSPPLNVAQRYVVACKEPKKK
notes: SAGA complex-associated factor 29 (SGF29); mouse and human SGF29 were cloned; also called purified WT SGF29 protein; source: E. coli BL21(DE3), purified
